The target in series [1] is T1, D-xylonate dehydratase from Caulobacter crescentus (CcXyDHT) (Caulobacter vibrioides, UniProt Q9A9Z2).
T1 construct: gene xylD; N-terminal Strep-tag II kept; expressed in E. coli; homotetramer; residues 1-591 (Asn3-His591 modelled); Lys130 carbamylated
As to the kind of experiment: X-ray crystal structure, […] Å. Conditions: holo form with Mg2+; Fe1 bound by Cys60 and Cys128, Fe2 by Cys200; active site. The format is binding.

Series [2] addresses D-xylonate dehydratase from Caulobacter crescentus (Caulobacter crescentus). As to the kind of experiment: crystal structure; holo-CcXyDHT at 2.7 Å, molecular replacement with 5J84, space group C2, a tetramer in the asymmetric unit; packing analysed with the PISA server.
Series [3] concerns the molecule itself. Nature of the series: crystal structure; re-refinement with PHENIX of the deposited apo So6PGDHT model (PDB 2GP4, 2.5 Å).

T1 sequence (Q9A9Z2 6-595): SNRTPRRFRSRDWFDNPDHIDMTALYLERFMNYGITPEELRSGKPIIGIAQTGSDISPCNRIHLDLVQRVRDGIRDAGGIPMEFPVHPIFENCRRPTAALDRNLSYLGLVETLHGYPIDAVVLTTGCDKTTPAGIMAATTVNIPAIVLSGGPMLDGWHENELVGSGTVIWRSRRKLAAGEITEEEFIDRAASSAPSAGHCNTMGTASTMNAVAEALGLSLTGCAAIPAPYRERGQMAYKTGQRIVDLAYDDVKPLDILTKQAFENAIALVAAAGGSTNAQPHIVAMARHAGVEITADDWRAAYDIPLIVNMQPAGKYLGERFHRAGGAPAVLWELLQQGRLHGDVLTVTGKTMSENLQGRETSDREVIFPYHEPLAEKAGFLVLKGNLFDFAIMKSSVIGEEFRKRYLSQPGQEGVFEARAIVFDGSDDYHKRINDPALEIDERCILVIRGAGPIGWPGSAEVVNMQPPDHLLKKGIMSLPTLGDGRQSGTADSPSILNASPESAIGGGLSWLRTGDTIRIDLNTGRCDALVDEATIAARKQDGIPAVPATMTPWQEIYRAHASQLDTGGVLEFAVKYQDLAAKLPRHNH

Turning to `[S]1[Fe][S][Fe]1` [[2Fe-2S] cluster], the “X-ray crystal structure, 2.7 Å” value in series [1] was “The crystal structure of CcXyDHT suggests that the enzyme has a [2Fe-2S] cluster”. By stoichiometry N is commonly meant a count of units in the complex or per binding partner. In the case of “D-xylonate dehydratase from Caulobacter crescentus (enzyme)”, the stoichiometry N in series [2] is 4.

B1: 6-phosphogluconate dehydratase from Shewanella oneidensis (enzyme)
chain: MHSVVQSVTDRIIARSKASREAYLAALNDARNHGVHRSSLSCGNLAHGFAACNPDDKNALRQLTKANIGIITAFNDMLSAHQPYETYPDLLKKACQEVGSVAQVAGGVPAMCDGVTQGQPGMELSLLSREVIAMATAVGLSHNMFDGALLLGICDKIVPGLLIGALSFGHLPMLFVPAGPMKSGIPNKEKARIRQQFAQGKVDRAQLLEAEAQSYHSAGTCTFYGTANSNQLMLEVMGLQLPGSSFVNPDDPLREALNKMAAKQVCRLTELGTQYSPIGEVVNEKSIVNGIVALLATGGSTNLTMHIVAAARAAGIIVNWDDFSELSDAVPLLARVYPNGHADINHFHAAGGMAFLIKELLDAGLLHEDVNTVAGYGLRRYTQEPKLLDGELRWVDGPTVSLDTEVLTSVATPFQNNGGLKLLKGNLGRAVIKVSAVQPQHRVVEAPAVVIDDQNKLDALFKSGALDRDCVVVVKGQGPKANGMPELHKLTPLLGSLQDKGFKVALMTDGRMSGASGKVPAAIHLTPEAIDGGLIAKVQDGDLIRVDALTGELSLLVSDTELATRTATEIDLRHSRYGMGRELFGVLRSNLSSPETGARSTSAIDELY
notes: 6-phosphogluconate dehydratase, Shewanella oneidensis, GenBank WP_011072452; apo form as in PDB 2GP4 (no [Fe-S] cluster, no Mg2+); The crystal data were deposited by others (PDB 2GP4, unpublished); also called So6PGDHT; SoPGDHT
With B1, the “stoichiometry N” value in series [3] is 2.

Values taken from article PMC5770437, “The crystal structure of D-xylonate dehydratase reveals functional features of enzymes from the Ilv/ED dehydratase family” (Scientific Reports, 2018).
